Reference: PMC11230385

Target: T1, Aquaporin Z with a C-terminal Strep-tag II (AqpZ-STII) (Escherichia coli), P60844
T1 chain: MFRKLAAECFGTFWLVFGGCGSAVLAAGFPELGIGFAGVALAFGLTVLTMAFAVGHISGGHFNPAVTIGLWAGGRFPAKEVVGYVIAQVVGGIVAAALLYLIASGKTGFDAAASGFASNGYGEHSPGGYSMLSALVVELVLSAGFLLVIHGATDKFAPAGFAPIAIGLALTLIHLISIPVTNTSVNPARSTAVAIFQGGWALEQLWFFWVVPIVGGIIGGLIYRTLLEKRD
Assay: native MS
Conditions: remark: other sources report otherwise

B1: Aquaporin Z with a C-terminal Strep-tag II (AqpZ-STII), P60844 1-231 (natural protein)
chain: T1 chain
Q: With B1 as the binder, how does the stoichiometry N read?
A: The stoichiometry N was 4.
